Results from US12583915 (MEDPACTO, dated 2026).
Substitutions are numbered along the chain they refer to.

B1: 2A11 antibody (antibody, V domains shown)
VH: QVQLQQPGAELVRPGASVTLSCKASGYTFTDYEMHWVKQTPVHGLEWIGIIDPETGGTAYNQKFKGKATLTADKSSSTAYMELRSLTSEDSAVYYCTRGKFYYSGRDYAMDYWGQGTSVTVSS
VL: DVLMTQTPLSLPVSLGDQASISCRSSQSIVHSNGNTYLEWYLQKPGQSPKLLIYKVSNRFSGVPDRFSGSGSGTDFTLKISRVEAEDLGVYFCFQGSQVPPTFGGGTKLEIK
notes: Mouse monoclonal antibody from a hybridoma; Capture antibody in the sandwich ELISA; also called anti-BAG2 antibody 2A11
B2: 8C4 antibody (antibody, V domains shown)
VH: B1 VH with G56A
VL: B1 VL with I53F
notes: Mouse monoclonal antibody from a hybridoma; also called 8G4 (as misprinted); anti-BAG2 antibody 8C4
B3: 9B12 antibody (antibody, V domains shown)
VH: QVQLQQSGAELVRPGTSVKVSCKASGYAFTNYMIEWIKQRPGQGLEWIGVINPGSGGSYYNEKVKGKATLTADRSSSTAYMQFSSLTADDSGVYFCRIYGNYKGYFDHWGQGTTLTVSS
VL: DIVMTQSPSSMYASLGERVTITCKASQDMNSYLSWFQQKPGKSPKTLIYRANRLVDGVPSRFSGSGSGQDYSLTISSLEYEDMGIYYCLQNDEFPFTFGSGTKLEMK
notes: Mouse monoclonal antibody from a hybridoma; Capture antibody in the sandwich ELISA; also called anti-BAG2 antibody 9B12
B4: 3G8 antibody (antibody, V domains shown)
VH: QIQLVQSGPELKKPGETVKISCKASGYSFTKYGMNWVKQAPGKDIKWMGWINTNTGEATYGEEVKGRFAFSLETSASTAYLQINNLKNEDTATYFCARLGLRYLDYWGQGTTLTVSS
VL: DIVMTQSPASLVVSLGQRATISCRASKSVSTSDYSYMHWYQQKPGQPPKVLIYLASNLESGVPARFSGSGSGTDFTLNIHPVEEEDAATYYCQHNRELPPTFGAGTKLELK
notes: Mouse monoclonal antibody from a hybridoma; also called 3 GB (as misprinted); anti-BAG2 antibody 3G8
B5: 3F12 antibody (antibody, V domains shown)
VH: QVQLQESGPDLVKPSQSLSLTCTVTGYSITSGYSWHWIRQFPGNKLEWMGYIYYRGSTNYNPSLKSRISITRDTSKNQFFLLLKSVTTEDTATYYCAREAYWGQGTLVTVSA
VL: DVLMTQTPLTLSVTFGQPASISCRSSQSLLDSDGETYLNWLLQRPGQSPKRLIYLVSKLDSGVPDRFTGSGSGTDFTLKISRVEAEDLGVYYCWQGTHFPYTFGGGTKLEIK
notes: Mouse monoclonal antibody from a hybridoma; also called anti-BAG2 antibody 3F12
B6: 3B5 antibody (antibody, V domains shown)
VH: EVQLQQSGPELVKPGASVKLSCKASGYSFTDYTFYWVRQSHGESLEWIGYIDPYNGGNTYNRKFKGKATLTVDKSSSTAFMHLNSLTSEDSAVYYCARGYYRYGGGGDFDYWGQGTTLTVSS
VL: B1 VL with I29L, E39H, Y54H, V90I, F94S, G96N, S97T, Q98H, V99I, G104A
notes: Mouse monoclonal antibody from a hybridoma; also called anti-BAG2 antibody 3B5
B7: 4C2 antibody (antibody, V domains shown)
VH: B1 VH with G57A
VL: B1 VL with I53F
notes: Mouse monoclonal antibody from a hybridoma; also called anti-BAG2 antibody 4C2
B8: 9B3 antibody (antibody, V domains shown)
VH: B3 VH with Q1E, R74K, G92A, H108Y
VL: B3 VL with M29I, M106I
notes: Mouse monoclonal antibody from a hybridoma; also called anti-BAG2 antibody 9B3
B9: 3B10 antibody (antibody, V domains shown)
VH: B3 VH with S7P, V12A, Y27H, S58T, N61S, F83L
VL: B3 VL with A51S, E79D, M106I
notes: Mouse monoclonal antibody from a hybridoma; also called anti-BAG2 antibody 3B10

target: T1, Myc-tag BAG2 (Homo sapiens (Human), UniProt O95816 1-211, limits assumed); assay: sandwich ELISA on lysate of MDA-MB-231 cells overexpressing Myc-tag BAG2 (OE) against empty vector cells (EV)
T1 construct: Expressed in MDA-MB-231 cells; 30 ug of lysate tested in the sandwich ELISA against cells with the Myc-tag empty vector (EV); not tied to this vector in so many words; also called BAG2 overexpressed from the Myc-tag BAG2 expression vector; OE; not shown: Myc tag
T1 sequence (O95816 whole entry): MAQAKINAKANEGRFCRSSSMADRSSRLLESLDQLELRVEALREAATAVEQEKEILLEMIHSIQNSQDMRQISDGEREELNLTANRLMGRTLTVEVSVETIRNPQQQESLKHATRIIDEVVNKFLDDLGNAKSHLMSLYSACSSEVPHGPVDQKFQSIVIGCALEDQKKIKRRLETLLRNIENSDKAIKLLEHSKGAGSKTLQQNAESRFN

| Binder | binding result |
| --- | --- |
| B1 | binds |
| B2 | binds |
| B3 | binds |
| B4 | binds |
| B5 | binds |

target: T2, GST-Bag Full (GST fusion of full-length human BAG2) (human, UniProt O95816 1-211); assay: immunoblot on lysate of HEK293T cells transfected with GST-Bag Full vector
T2 construct: Expressed in HEK293T cells, tested in cell lysate by immunoblot; band at about 50 kDa; also called GST-Bag Full vector product; full-length BAG2 polypeptide; not shown: GST tag from the pcDNA3.1+/GST vector, about 26 kDa
T2 sequence (O95816 whole entry, the tested form may be a part): as the sequence (O95816 whole entry) above
Description: Next, for domain mapping of the BAG2 antigen to which the ten antibodies identified in Section 1 above, cells, to which the GST-Empty vector (pcDNA3.1+/GST vector, NovoPro Bioscience Inc. China) having a molecular weight of about 26 kDa was introduced, was used as a negative control. GST-Bag Full vector, GST-Bag F1 vector, GST-Bag F2 vector, GST-Bag F3 vector, and GST-Bag F4 vector, each including polynucleotides encoding human BAG2 protein and polynucleotides encoding fragments of the BAG2 protein, were introduced into cells, and the cells with the vectors introduced thereinto were cultured to express the genes, and then, cell lysates were obtained. For cell lysates, immunoblotting was performed using each of the 10 antibodies. The polynucleotide encoding the human BAG2 protein has the nucleotide sequence of SEQ ID NO: 70. The GST-Bag F1, -Bag F2, -Bag F3, and -Bag F4 vectors consist of the nucleotide sequences of SEQ ID NOS: 71 to 74, respectively.
FIGS. 2A and 2B show the results of immunoblotting for the full-length BAG2 polypeptide of anti-BAG2 antibody or a fragment thereof. […] In detail, the immunoblotting was performed as follows: each of the vectors was introduced into HEK293T cells by lipofectamine transfection (Thermo Fisher Scientific, Inc., Waltham, MA, USA) method, and the obtained transformed cells were cultured at a temperature of 37° C. in DMEM (Welgene) medium containing 10% FBS, 100 U/ml penicillin and 100 µg/ml streptomycin for 30 hours, and then cells were isolated. The isolated cells were disrupted using the same method as described in connection with FIG. 1 and subjected to […] analysis on a 12% gel. For immunoblotting, after reacting for 1 hour with the same blocking solution as described in connection with FIG. 1, each of the 10 purified anti-BAG2 antibodies having a concentration of 2 mg/ml was used as a primary antibody at a dilution of 1/10000 dilution and bound to the cells. The goat anti-mouse HRP conjugate used as the secondary antibody was used at a 1/5000 dilution concentration, and Film-photosensing was carried out in the dark using EGL reagent (Amersham Pharmacia Biotech) as a substrate. Standard molecular marker sizes were expressed to confirm the size of BAG2.

| Binder | binding result |
| --- | --- |
| B1 | binds |
| B6 | binds |
| B7 | binds |
| B2 | binds |
| B3 | binds |
| B8 | binds |
| B9 | binds |
| B4 | binds |
| B5 | binds |

target: T3, human BAG2 protein (human, UniProt O95816 2-211); assay: Western blot on MDA-MB-231 cell lysate
T3 construct: also called BAG2 polypeptide; Bcl-2-associated athanogene 2
T3 sequence (O95816 2-211 limits assumed): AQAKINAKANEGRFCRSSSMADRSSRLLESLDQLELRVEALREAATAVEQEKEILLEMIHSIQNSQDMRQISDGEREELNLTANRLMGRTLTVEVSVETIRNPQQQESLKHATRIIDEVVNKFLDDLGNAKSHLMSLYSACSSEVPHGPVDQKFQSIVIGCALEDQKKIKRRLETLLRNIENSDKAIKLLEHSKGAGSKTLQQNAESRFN

| Binder | binding result |
| --- | --- |
| B6 | binds |
| B7 | binds |
| B2 | binds |
| B3 | binds |
| B8 | binds |
| B9 | binds |
| B4 | binds |

target: T3, human BAG2 protein; assay: selection of hybridoma clones by immunoblotting

| Binder | binding result |
| --- | --- |
| B1 | binds |
| B5 | binds |
